Assay in all cases: FP
The target in test [1] is T1, GST-tagged GluK1 ATD (rat).
T1 chain: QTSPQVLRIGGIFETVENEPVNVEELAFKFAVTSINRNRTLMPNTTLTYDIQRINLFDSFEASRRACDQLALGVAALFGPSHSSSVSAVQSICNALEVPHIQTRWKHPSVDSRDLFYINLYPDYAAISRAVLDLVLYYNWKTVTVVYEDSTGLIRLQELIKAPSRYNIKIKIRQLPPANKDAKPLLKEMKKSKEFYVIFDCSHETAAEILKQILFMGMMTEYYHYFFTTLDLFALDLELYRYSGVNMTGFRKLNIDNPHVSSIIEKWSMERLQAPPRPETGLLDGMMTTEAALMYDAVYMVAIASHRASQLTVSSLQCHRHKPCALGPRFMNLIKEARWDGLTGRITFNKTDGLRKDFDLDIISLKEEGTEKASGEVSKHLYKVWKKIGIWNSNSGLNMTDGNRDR

Test [2] deals with T2, GST-tagged GluK2 ATD (rat).
T2 chain: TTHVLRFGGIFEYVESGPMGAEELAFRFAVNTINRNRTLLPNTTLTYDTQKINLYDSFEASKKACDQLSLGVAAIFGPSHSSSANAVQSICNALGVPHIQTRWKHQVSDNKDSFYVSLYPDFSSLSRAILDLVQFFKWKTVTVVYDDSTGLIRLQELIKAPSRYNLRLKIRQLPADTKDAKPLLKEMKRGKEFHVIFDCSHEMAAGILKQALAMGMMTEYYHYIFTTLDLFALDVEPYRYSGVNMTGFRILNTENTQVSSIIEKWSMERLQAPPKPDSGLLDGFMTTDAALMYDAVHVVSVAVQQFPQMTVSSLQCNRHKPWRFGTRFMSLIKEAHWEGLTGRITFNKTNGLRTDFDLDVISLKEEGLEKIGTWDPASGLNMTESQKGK

For test [3], the target named is T3, GST-tagged GluK2 region corresponding to GluK1 N72-137 (rat, UniProt P42260 71-136).
T3 chain: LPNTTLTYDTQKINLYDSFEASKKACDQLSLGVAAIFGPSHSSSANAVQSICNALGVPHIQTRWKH

In test [4] the target is T4, GST-tagged GluK1 N72-137 region (rat, UniProt P22756 72-137).
T4 chain: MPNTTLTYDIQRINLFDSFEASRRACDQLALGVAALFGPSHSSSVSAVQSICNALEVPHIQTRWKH

Where no end group is shown, it is not given here. The star is where a group is joined. FITC = O=C1OC2(c3ccc(O)cc3Oc3cc(O)ccc32)c2ccc(NC(=S)*)cc21

A word on the Kd: it is the constant that tells how readily two partners part at equilibrium. High values mean weaker binding, low ones tighter binding.

B1: FITC-labelled GluK1 signal peptide (peptide)
chain: {FITC}-MERSTVLIQPGLWTRDTSWTLLYFLCYILP
On to B1, for which the Kd amounted to 13.7 µM in test [1], 35.7 µM in test [2], 36.3 µM in test [3] and 14.1 µM in test [4].

For the origin of these results see publication PMC6242971 (2018).
